{"source": "paper doi:10.1101/2024.09.08.611708", "about": "(2024)", "target": "MpATG8A (M. polymorpha)", "sequence (chain, as listed by the source)": "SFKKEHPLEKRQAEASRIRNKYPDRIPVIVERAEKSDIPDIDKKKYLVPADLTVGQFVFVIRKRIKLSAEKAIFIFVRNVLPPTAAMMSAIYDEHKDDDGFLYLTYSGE", "test": "ITC"}
{"binder": "DWEIV", "note": "[canonical AIM peptide (AIM wt)]", "values": [{"measurement": "Kd", "value": 55.6, "unit": "nM"}]}
